Results as given in patent US12072338B2, “Pharmaceutical peptides for the treatment of inflammatory diseases” (PROTAGONISTS LTD., priority 2007, dated 2024).

What was measured:
[1] = target: T1, RANTES (Homo sapiens, UniProt P13501); assay: Micro-array analysis of chemokine binding peptides: RANTES
T1 construct: purchased 300-06
T1 sequence (P13501 24-91): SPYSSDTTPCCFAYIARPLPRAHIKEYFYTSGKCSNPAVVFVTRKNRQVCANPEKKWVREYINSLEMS
Outline: (§1)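 Phage-presented peptides (10^7 pfu/μl in wash buffer) were incubated 1 h at room temperature on blocked slides carrying chemokine spots at 25 or 50 μg/ml. After anti-M13 and Cy3-labelled secondary antibody staining, slides were laser-scanned and spot fluorescence quantified as relative binding.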

[2] = target: T2, Eotaxin 2 (Homo sapiens, UniProt O00175); assay: Micro-array analysis of chemokine binding peptides: Eotaxin 2
T2 construct: purchased 300-33
T2 sequence (O00175 27-119): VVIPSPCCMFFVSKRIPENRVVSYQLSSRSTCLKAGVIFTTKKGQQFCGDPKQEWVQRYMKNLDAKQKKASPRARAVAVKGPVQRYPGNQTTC
Description: (1) Printing: Chemokine (CK) solution (in water) was serially diluted with Print Reagent (GenTel BioSurfaces USA) to final concentrations of 50 μg and 25 μg/ml. BSA/BSA-Biotin control solutions (in water) were diluted with Print Reagent to 100 μg/ml. Amplified stock of M13 phage control (M13KEgIII Cloning Vector, New England Biolabs, Cat.No.E8101S) was stored in Tris Buffered Saline (TBS; pH7.5, 4° C.) and diluted with Print Reagent to the working titre (10^8 pfu/μl). An automated spotting robot (16 pin print tool, 0.4 mm head; BioRobotics, UK) was used to print the CK/BSA control/M13 control, 5 repeats per sample (CK 25 μg/ml and 50 μg/ml; BSA 100 μg/ml; M13 20 μl), on PATH Protein Microarray Slides (GenTel, Prod.No. 2-1005/-1025) at […], and 50-70% relative humidity. Printed micro-array slides were stored at Room Temperature (RT) or 4° C. for at least 24 h before use.
(2) Blocking: Block Buffer (500 μl/partition; PATHblock, GenTel, Prod.No. 2-1014) was applied to the slide for 1 hour at room temp (RT). After removal of Block Buffer, the slide was air dried for 25 minutes;
(3) Phage Presented Peptide Binding: Amplified recombinant phage stock was stored in TBS and diluted with Wash Buffer to working titer (10^7 pfu/μl). Recombinant phage suspension (300 μl) was applied per partition and incubated at RT for 1 hour with gentle agitation.
(4) First Washing: The slides were washed twice with Wash Buffer 300 μl/partition).
(5) Primary Antibody (Ab) Labeling: The slides were incubated with the Primary Ab (1 mg/ml diluted ×2500 (Wash Reagent), 300 μl; Mouse Anti-M13 monoclonal Ab; Amersham Biosciences, UK; Product Code 27-9420-01) for 45 minutes at RT.
(6) Second Washing: The slides were washed twice with Wash Buffer (300 μl/partition).
(7) Secondary Ab Labeling: The slides were incubated with Secondary Ab (1.5 mg/ml diluted ×5000 (Wash Reagent), 300 μl; Cy3-conjugated AffiniPure Goat Anti-Mouse IgG; Jackson ImmunoReserch Labs, USA; Product Code 115-165-062).
(8) Third Washing: The slides were washed twice with Wash Buffer (300 μl/partition).
(9) Rinse: the slides were rinsed twice with Rinse Buffer (PATHrinse, GenTel, Prod.No. 2-1018) then dried well.
(10) Scanning: The peptide-bound, labeled slide was scanned (Laser Intensity 80%, Gain 80%, Resolution 10 μm) with a ScanArray Life Scanner (Packard BioChip Technologies, USA).
(11) Analysis: Quantitative analysis of micro-array was performed by the SpotReader program of Niles Scientific (USA) and presented as Relative Fluorescence (RF) as a function of CK concentration. Micro-array readout (Cy3 fluorescence) was quantified to determine the relative binding affinities of a CBP for the CKs and by inference, the specificity of the CBP for binding to a CK.

[3] = target: T3, SDF1-α (Homo sapiens, UniProt P48061); assay: Micro-array analysis of chemokine binding peptides: SDF1-α
T3 construct: purchased 300-28a
T3 sequence (P48061 22-89 limits assumed): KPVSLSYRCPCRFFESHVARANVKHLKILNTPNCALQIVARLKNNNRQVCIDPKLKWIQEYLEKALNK
Outline: as §1

[4] = target: T4, Lymphotactin (Homo sapiens, UniProt P47992); assay: Micro-array analysis of chemokine binding peptides: Lymphotactin
T4 construct: purchased 300-20
T4 sequence (P47992 22-114): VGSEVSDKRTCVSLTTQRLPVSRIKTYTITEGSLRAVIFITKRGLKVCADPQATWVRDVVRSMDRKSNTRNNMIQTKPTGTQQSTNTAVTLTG
Outline: as §1

[5] = test system: Adjuvant-Induced Arthritis (AIA) rats; assay: Adjuvant Induced Arthritis (AIA) rat model, Clinical Score; assay type: in vivo; settings: for most efficacious of the three doses: 2.5 μg, 25 μg and 250 μg IP on days 7-18; for day of maximal anti-inflammatory effect / maximal anti-inflammatory effect: 25 μg IP on days 7-18
Description: Peptides were tested in a rat model of AIA for their anti-inflammatory effects.
Disease Induction: AIA was induced in female Lewis rats aged 7-8 weeks by injection of heat-killed Mycobacerioum tuberculosis (Mt strain H37Ra, Difco Laboratories, USA) dispersed in incomplete Freund's adjuvant to a final concentration of 10 mg/ml (100 μl) at the base of the tail on day 0.
Measurement: Clinical Score (CS, 0-4) for each limb based on (a) joint inflammation, (b) redness, (c) deformity.
Efficacy Protocol 1 (5 rats per group). Peptide/control compound was injected intra-peritoneally (IP, 200 μl) on days 7-11 and 14-18.
Rats were sacrificed (CO2 inhalation) on day 43.
Efficacy Protocol 2 (8 rats per group). Group 1: peptide/PBS was injected intra-peritoneally (IP, 200 μl) on days 7-18; Group 2: PBS was injected IP on days 7-18; Group 3: Dexamethasone (Dexa) was injected IP on days 11 (Clinical Score (CS)1) and 13. Rats were sacrificed on day 43.
Combination Efficacy Protocol 1 (8 rats per group). Group 1: peptide injected IP on days 7-18; Group 2: PBS injected IP on days 7-18; Group 3: Dexa injected IP on day 11 (CS 1) and day 13; Group 4: Dexa injected IP on days 11 and 13 then peptide injected on days 14-22; Group 5: Dexa injected IP on days 11 and 13 then PBS injected on days 14-22.
(§2) Combination Efficacy Protocol 2 (8 rats per group). Group 1: peptide injected IP on days 7-18; Group 2: PBS injected IP on days 7-18; Group 3: Dexa injected IP on day 11 (CS 1) and day 13 then PBS on days 14-22; Group 4: PBS injected IP on days 7-10,12,14; Dexa injected on days 11, 13. Peptide injected on days 15-19.
as §2, with “Protocol 3” for “Protocol 2”, “4: peptide” for “4: PBS”
Control Reagents for Adjuvant Induced Arthritis: Anti-Inflammatory Control: Dexamethasone Sodium Phosphate (Dexacort Forte, Teva) was dissolved in Phosphate Buffer Saline (PBS, GIBCO) to a final concentration of 1 mg/ml and injected in 200 μl (200 μg).
Negative Control: Phosphate Buffer Saline (PBS).

[6] = limit = start of the upper 75% of that peptide's response range

| binding to RANTES with relatively high affinity (Relative Fluorescence Units) [1, 6] | binding to Eotaxin 2 with relatively high affinity (Relative Fluorescence Units) [2, 6] | binding to SDF1-α, stated in words [3] | binding to Lymphotactin, stated in words [4] | binding to RANTES, stated in words [1] | binding to Eotaxin 2, stated in words [2] | Sequence | most efficacious of the three doses [5] | day of maximal anti-inflammatory effect [5] | maximal anti-inflammatory effect [5] |
| --- | --- | --- | --- | --- | --- | --- | --- | --- | --- |
| > 15,000 RFU | > 15,000 RFU | bound | bound |  |  | DYDYGAPC [Ph-p30] |  |  |  |
|  |  |  |  | bound specifically and differentially |  | WVFGNAMCK [P8] | 25 µg | ~17 days | 17% |
|  |  | bound | bound |  | bound | WVFGAAMCK [Ph-p8.8] | 25 µg | 18 days | 20% |
